Source: patent US20080166762A1

Molecular target: IL-1 receptors on MCF-7 cells
Experiment: cell-based or functional assay

Row | inhibition of proliferation of MCF-7 cells (BrdU) | proliferation of MCF-7 cells (BrdU) in the presence of 50 ng IL-1beta | Substance
1 | 50 ng | – | Recombinant human IL-1beta (from UniProt P01584 117-269) (ligand)
2 | – | 20 ng | recombinant IL-1Ra standard from E. coli (Prospectany) (from UniProt P18510 26-177) (ligand)
3 | – | 40 ng | Interleukin 1 receptor antagonist (IL-1Ra) secreted by Pichia pastoris x-33/pGAPZαA/IL-1Ra clone 7, partially purified (from UniProt P18510 26-177) (ligand)
